From US20230137032A1 (GlaxoSmithKline, published 2023)

Key:
[1] = biological target: T1, recombinant human BCMA, commercial (US Biological, B0410) (human, UniProt Q02223 5-54, limits assumed); experiment: Biacore T100, antibody captured on Protein A, 37C
T1 construct: also called commercial human BCMA; Human commercial BCMA
T1 chain (looked up): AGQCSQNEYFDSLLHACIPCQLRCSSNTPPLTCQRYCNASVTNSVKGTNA

[2] = biological target: T2, recombinant cyno BCMA, in house material (cyno, UniProt A0A2K5UD97 4-52); experiment: Biacore T100, antibody captured on Protein A, 37C
T2 construct: also called Cyno in house BCMA

[3] = biological target: T3, human BCMA expressed on cells (human, UniProt Q02223 1-184); experiment: FACS on ARH77-hBCMA 10B5 transfectant cells, PE anti-human IgG, MFI
T3 construct: whole, on cells; also called human BCMA HEK293; ARH77-hBCMA 10B5 BCMA expressing transfectant cells
T3 sequence (looked up): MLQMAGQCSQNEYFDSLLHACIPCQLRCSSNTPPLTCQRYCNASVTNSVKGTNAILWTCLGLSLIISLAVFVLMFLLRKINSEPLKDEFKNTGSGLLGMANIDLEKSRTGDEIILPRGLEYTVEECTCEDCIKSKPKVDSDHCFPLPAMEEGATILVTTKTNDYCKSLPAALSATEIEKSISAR
Description: Cells were then washed with FACS buffer (PBS+0.5% BSA+0.1% sodium azide) to remove unbound antibody. Cells were incubated with a secondary PE labelled anti-human IgG antibody for 15 minutes at RT and then washed with FACS buffer to remove unbound antibody. Cells were analysed by FACS and mean fluorescence intensity (MFI) values measured to determine binding.

[4] = biological target: T1, recombinant human BCMA, commercial (US …); experiment: ProteOn SPR run 2, antibody captured on Protein A, 25C
[5] = biological target: T2, recombinant cyno BCMA, in house material; experiment: as above
[6] = biological target: T4, recombinant human BCMA, in house material (human, UniProt Q02223 4-53, limits assumed); experiment: ProteOn SPR run 2, antibody captured on Protein A, 25C; Run 2 (Table 9)
T4 construct: also called Human in house BCMA; In house human BCMA
Description: The initial screen of CA8 chimeric and humanised variants was carried out on the ProteOn XPR36 (Biorad). The method was as follows; Protein A was immobilised on a GLC chip (Biorad, Cat No: 176-5011) by primary amine coupling, CA8 variants were then captured on this surface and recombinant human BCMA (in house or commercial US Biological, B0410) materials (run 2 only)) passed over at 256, 64, 16, 4, 1 nM with a 0 nM injection (i.e. buffer alone) used to double reference the binding curves, the buffer used is the HBS-EP buffer. 50 mM NaOH was used to regenerate the capture surface. The data was fitted to the 1:1 model using the analysis software inherent to the ProteOn XPR36. […] Both runs were carried out at 25° C.

[7] = biological target: T4, recombinant human BCMA, in house …; experiment: ProteOn SPR run 1, antibody captured on Protein A, 25C
[8] = biological target: T2, recombinant cyno BCMA, in house material; experiment: as above

T2 sequence (A0A2K5UD97 entry or part of it): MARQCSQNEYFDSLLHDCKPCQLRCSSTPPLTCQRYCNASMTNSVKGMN

B1: CA8 humanised J7M1 (antibody, human IgG1, kappa, V domains shown)
VH: QVQLVQSGAEVKKPGSSVKVSCKASGYTFTNYWMHWVRQAPGQGLEWMGATYRGHSDTYYNQKFKGRVTITADKSTSTAYMELSSLRSEDTAVYYCARGAIYDGYDVLDNWGQGTLVTVSS
VL: DIQMTQSPSSLSASVGDRVTITCSASQDISNYLNWYQQKPGKAPKLLIYYTSNLHSGVPSRFSGSGSGTDYTLTISSLQPEDFATYYCQQYRKLPWTFGQGTKLEIKR
notes: Humanised CA8, heavy chain J7 with light chain M1, human IgG1 kappa; also called CA8 J7M1
B1 was tested, and the Kd [1] was 0.056 nM and the Kd [2] was 1.06 nM.

B2: CA8 humanised J6M1 (antibody, human IgG1, kappa, V domains shown)
VH: QVQLVQSGAEVKKPGSSVKVSCKASGGTFSNYWMHWVRQAPGQGLEWMGATYRGHSDTYYNQKFKGRVTITADKSTSTAYMELSSLRSEDTAVYYCARGAIYDGYDVLDNWGQGTLVTVSS
VL: DIQMTQSPSSLSASVGDRVTITCSASQDISNYLNWYQQKPGKAPKLLIYYTSNLHSGVPSRFSGSGSGTDYTLTISSLQPEDFATYYCQQYRKLPWTFGQGTKLEIKR
notes: Humanised CA8, heavy chain J6 with light chain M1, human IgG1 kappa; also called CA8 J6M1
For B2, the binding result [3] was “binds”, the Kd [4] was 0.063 nM and the Kd [5] was 5.3 nM. It also gave a Kd [6] of 0.124 nM.

B3: CA8 humanised J8M1 (antibody, human IgG1, kappa, V domains shown)
VH: QVQLVQSGAEVKKPGSSVKVSCKASGYTFTNYWMHWVRQAPGQGLEWMGATYRGHSDTYYNQKFKGRVTITADKSTSTAYMELSSLRSEDTAVYYCTRGAIYDGYDVLDNWGQGTLVTVSS
VL: DIQMTQSPSSLSASVGDRVTITCSASQDISNYLNWYQQKPGKAPKLLIYYTSNLHSGVPSRFSGSGSGTDYTLTISSLQPEDFATYYCQQYRKLPWTFGQGTKLEIKR
notes: Humanised CA8, heavy chain J8 with light chain M1, human IgG1 kappa; also called CA8 J8M1
Work on B3 yielded a Kd [1] of 0.05 nM and a Kd [2] of 1.28 nM.

B4: CA8 humanised J6M2 (antibody, human IgG1, kappa, V domains shown)
VH: QVQLVQSGAEVKKPGSSVKVSCKASGGTFSNYWMHWVRQAPGQGLEWMGATYRGHSDTYYNQKFKGRVTITADKSTSTAYMELSSLRSEDTAVYYCARGAIYDGYDVLDNWGQGTLVTVSS
VL: DIQLTQSPSSLSASVGDRVTITCSASQDISNYLNWYQQKPGKAPELVIYYTSNLHSGVPSRFSGSGSGTDYTLTISSLQPEDFATYYCQQYRKLPWTFGQGTKLEIKR
notes: Humanised CA8, heavy chain J6 with light chain M2, human IgG1 kappa; also called CA8 J6M2
With B4 the binding result [3] was “binds”, the Kd [4] was 0.071 nM and the Kd [5] was 6.86 nM. It also gave a Kd [6] of 0.202 nM.

B5: CA8 humanised J7M0 (antibody, human IgG1, kappa, V domains shown)
VH: QVQLVQSGAEVKKPGSSVKVSCKASGYTFTNYWMHWVRQAPGQGLEWMGATYRGHSDTYYNQKFKGRVTITADKSTSTAYMELSSLRSEDTAVYYCARGAIYDGYDVLDNWGQGTLVTVSS
VL: DIQMTQSPSSLSASVGDRVTITCSASQDISNYLNWYQQKPGKAPKLLIYYTSNLHSGVPSRFSGSGSGTDFTLTISSLQPEDFATYYCQQYRKLPWTFGQGTKLEIKR
notes: Humanised CA8, heavy chain J7 with light chain M0, human IgG1 kappa; also called CA8 J7M0
Binder B5 has a Kd [1] of 0.064 nM and a Kd [2] of 1.14 nM.

B6: CA8 humanised J7M2 (antibody, human IgG1, kappa, V domains shown)
VH: QVQLVQSGAEVKKPGSSVKVSCKASGYTFTNYWMHWVRQAPGQGLEWMGATYRGHSDTYYNQKFKGRVTITADKSTSTAYMELSSLRSEDTAVYYCARGAIYDGYDVLDNWGQGTLVTVSS
VL: DIQLTQSPSSLSASVGDRVTITCSASQDISNYLNWYQQKPGKAPELVIYYTSNLHSGVPSRFSGSGSGTDYTLTISSLQPEDFATYYCQQYRKLPWTFGQGTKLEIKR
notes: Humanised CA8, heavy chain J7 with light chain M2, human IgG1 kappa; also called CA8 J7M2
In the case of B6, the Kd [1] is reported as 0.057 nM and the Kd [2] is reported as 1.29 nM.

B7: CA8 humanised J8M0 (antibody, human IgG1, kappa, V domains shown)
VH: QVQLVQSGAEVKKPGSSVKVSCKASGYTFTNYWMHWVRQAPGQGLEWMGATYRGHSDTYYNQKFKGRVTITADKSTSTAYMELSSLRSEDTAVYYCTRGAIYDGYDVLDNWGQGTLVTVSS
VL: DIQMTQSPSSLSASVGDRVTITCSASQDISNYLNWYQQKPGKAPKLLIYYTSNLHSGVPSRFSGSGSGTDFTLTISSLQPEDFATYYCQQYRKLPWTFGQGTKLEIKR
notes: Humanised CA8, heavy chain J8 with light chain M0, human IgG1 kappa; also called CA8 J8M0
In the case of B7, the Kd [1] is reported as 0.052 nM and the Kd [2] is reported as 1.08 nM.

B8: CA8 humanised J8M2 (antibody, human IgG1, kappa, V domains shown)
VH: QVQLVQSGAEVKKPGSSVKVSCKASGYTFTNYWMHWVRQAPGQGLEWMGATYRGHSDTYYNQKFKGRVTITADKSTSTAYMELSSLRSEDTAVYYCTRGAIYDGYDVLDNWGQGTLVTVSS
VL: DIQLTQSPSSLSASVGDRVTITCSASQDISNYLNWYQQKPGKAPELVIYYTSNLHSGVPSRFSGSGSGTDYTLTISSLQPEDFATYYCQQYRKLPWTFGQGTKLEIKR
notes: Humanised CA8, heavy chain J8 with light chain M2, human IgG1 kappa; also called CA8 J8M2
Binder B8 has a Kd [1] of 0.057 nM and a Kd [2] of 1.32 nM.

B9: CA8 humanised J9M1 (antibody, human IgG1, kappa, V domains shown)
VH: QVQLVQSGAEVKKPGSSVKVSCKGSGYTFTNYWMHWVRQAPGQGLEWIGATYRGHSDTYYNQKFKGRATLTADTSTSTAYMELSSLRSEDTAVYYCTRGAIYDGYDVLDNWGQGTLVTVSS
VL: DIQMTQSPSSLSASVGDRVTITCSASQDISNYLNWYQQKPGKAPKLLIYYTSNLHSGVPSRFSGSGSGTDYTLTISSLQPEDFATYYCQQYRKLPWTFGQGTKLEIKR
notes: Humanised CA8, heavy chain J9 with light chain M1, human IgG1 kappa; also called CA8 J9M1
B9 was tested, and the binding result [3] was “binds”, the Kd [1] was 0.018 nM and the Kd [2] was 0.442 nM.

B10: CA8 humanised J9M2 (antibody, human IgG1, kappa, V domains shown)
VH: QVQLVQSGAEVKKPGSSVKVSCKGSGYTFTNYWMHWVRQAPGQGLEWIGATYRGHSDTYYNQKFKGRATLTADTSTSTAYMELSSLRSEDTAVYYCTRGAIYDGYDVLDNWGQGTLVTVSS
VL: DIQLTQSPSSLSASVGDRVTITCSASQDISNYLNWYQQKPGKAPELVIYYTSNLHSGVPSRFSGSGSGTDYTLTISSLQPEDFATYYCQQYRKLPWTFGQGTKLEIKR
notes: Humanised CA8, heavy chain J9 with light chain M2, human IgG1 kappa; also called CA8 J9M2
Binder B10 has a Kd [2] of 0.515 nM.

B11: S307118G03 H5L0 (antibody, human IgG1, kappa, V domains shown)
VH: QVQLVQSGAEVKKPGSSVKVSCKASGYTFTDYYMKWVRQAPGQGLEWIGEIYPNNGGITYNQKFKGRATLTVDKSTSTAYMELSSLRSEDTAVYYCANGYEFDYWGQGTLVTVSS
VL: DIQMTQSPSSLSASVGDRVTITCSASQGISNYLNWYQQKPGKAPKLLIYYTSSLHSGVPSRFSGSGSGTDFTLTISSLQPEDFATYYCQQYSKLPWTFGQGTKLEIKR
notes: Humanised, human IgG1 kappa; also called S307118G03 humanised H5L0
B11: no binding [5].

B12: S307118G03 humanised H2L1 (antibody, human IgG1, kappa, V domains shown)
VH: QVQLVQSGAEVKKPGSSVKVSCKASGYTFTDYYMKWVRQAPGQGLEWMGEIYPNNGGITYNQKFKGRVTITADKSTSTAYMELSSLRSEDTAVYYCANGYEFVYWGQGTLVTVSS
VL: DIQMTQSPSSLSASVGDRVTITCSASQGISNYLNWYQQKPGKAPKLLIYYTSSLHSGVPSRFSGSGSGTDYTLTISSLQPEDFATYYCQQYSKLPWTFGQGTKLEIKR
notes: Humanised, human IgG1 kappa
With B12 the Kd [7] was 6.37 nM and the binding result [8] was “no binding”.

B13: S307118G03 humanised H3L0 (antibody, human IgG1, kappa, V domains shown)
VH: QVQLVQSGAEVKKPGSSVKVSCKASGYTFTDYYMKWVRQAPGQGLEWIGEIYPNNGGITYNQKFKGRATLTVDKSTSTAYMELSSLRSEDTAVYYCANGYEFVYWGQGTLVTVSS
VL: DIQMTQSPSSLSASVGDRVTITCSASQGISNYLNWYQQKPGKAPKLLIYYTSSLHSGVPSRFSGSGSGTDFTLTISSLQPEDFATYYCQQYSKLPWTFGQGTKLEIKR
notes: Humanised, human IgG1 kappa
B13 was tested, and the Kd [7] was 5.31 nM and the binding result [8] was “no binding”.

B14: S307118G03 humanised H4L1 (antibody, human IgG1, kappa, V domains shown)
VH: QVQLVQSGAEVKKPGSSVKVSCKASGYTFTDYYMKWVRQAPGQGLEWMGEIYPNNGGITYNQKFKGRVTITADKSTSTAYMELSSLRSEDTAVYYCADGYEFVYWGQGTLVTVSS
VL: DIQMTQSPSSLSASVGDRVTITCSASQGISNYLNWYQQKPGKAPKLLIYYTSSLHSGVPSRFSGSGSGTDYTLTISSLQPEDFATYYCQQYSKLPWTFGQGTKLEIKR
notes: Humanised, human IgG1 kappa
B14: no binding (tested: up to 256 nM) [7]; no binding [8].
